Test: soluble on expression in E. coli; label from the status in PepcDB or PDB records

| Sequence | soluble on expression in E. coli |
| --- | --- |
| MNPNFLDFEQPIADLQAKIEELRLVGNDNALNISDEISRLQDKSKALTENIFGNLSSWQIAQLARHPKRPYTLDYIGYLFSDFEELHGDRHFADDPAIVGGVARLDGSPVMVIGHQKGREVREKVRRNFGMPRPEGYRKACRLMEMAERFKMPILTFIDTPGAYPGIDAEERGQSEAIAWNLRVMARLKTPIIATVIGEGGSGGALAIGVCDQLNMLQYSTYSVISPEGCASILWKTAEKAPEAAEAMGITAERLKGLGIVDKVIDEPLGGAHRDPASMAESIRGELLAQLKMLQGLEMGELLERRYDRLMSYGAP | not soluble |
| MNQEVTAPKEMNQGASNDLLTTSLKNVTRLNTNDPSQMAVLTSQTIWAATHKENQPGAVILVPASEWQLGIASADFIHHPNNGPILFIEKEKIPEMTLKEIKRLNPIGTKDGTQIMVMGDVGTSALEQLKGYKVKQIKETDPAIFAKDVDKEYADITGSYPNSVIIGSSAEEGRLYTTPAVNWISHMPEPLLYTEKNKVPEATIEALKMRKDKANIYVLGPEKIVSKEVEKELSKYGKVTRISGETPTENSIAFAKFKDEKTKFGWGFTKPGHGLSFVSSKTPDLAVAGAPFSHMGKHAPVVLLEEGKASQTVYDFLASIQPKFKDDPTLGPYNHGFLLGNTSDISFETQGILDERLEIVQESGQGHGGH | not soluble |
| MNQNKSNVPVSVAEEPDELSYYRLTLLSFLRESHPDLADDESFVATRSEQAAEAFSAAVRSGLTYDDAAQQANALLFQGLHFSPLDTLVTVLWNEFAAEVPEGSARSVALQLLPECRKVFAGYTLSDDFMFSPEFGQLYDELTGTVVIWLEENGL | not soluble |
| MNREEMTLLGFEIVAYAGDARSKLLEALKAAENGDFAKADSLVVEAGSCIAEAHSSQTGMLAREASGEELPYSVTMMHGQLHLMTTILLKDVIHHLIELYKRGAK | soluble |
| MNREKLMKMANTVRTGGKGTVRRKKKAVHKTTTTDDKRLQSTLKRVGVNSIPAIEEVNIFKDDVVIQFINPKVQASIAANTWVVSGTPQTKKLQDILPQIISQLGPDNLDNLKKLAEQFQKQAPGAGDVPATIQEEDDDDDVPDLVVGETFETPATEEAPKAAAS | soluble |
| MNRLKNMSKYSDAKELASLTLGKKTEYANQYDPSLLQPVPRSLNRNDLHLSATLPFQGCDIWTLYELSWLNQKGLPQVAIGEVSIPATSANLIESKSFKLYLNSYNQTRFASWDEVQTRLVHDLSACAGETVTVNVKSLNEYTAEPIVTMQGECIDDQDIEIANYEFDDALLQGAAQGEEVSEVLHSHLLKSNCLITNQPDWGSVEIAYHGAKMNREALLRYLVSFREHNEFHEQCVERIFTDIMRYCQPQSLTVYARYTRRGGLDINPFRSSHQSAPNHNQRMARQ | soluble |
| MNRLLNEKVEEFKKGVLKAGWFIEKMFRNSISSLVERNESLAREVIADEEVVDQMEVEIQEKAMEVLGLFSPIGKPLLTVTAGIRVAELIENIADKCHDIAKNVLELMEEPPLKPLEDIPAMANQTSEMLKFALRMFADVNVEKSFEVCRMDSKVDDLYEKVREELLLYMMESPKYVKRALLLLEIAGNIEIIADYATNIVEVSVYMVQGEAYKCYHDELLLFKKSGGVLFESSD | soluble |
| MNRQLLLDVLPAPAPALNNYIAGPNGQALAAAHALTAGRAIYLWGPAGCGRTHLLRGLSARPEAIYIDAARAAQSLRELAEADSTAPMPRLVAVDDVHRMDDARQAGLFALYNRWRESAATGRAFALAVSGDRAPMSLPLREDLRTRLGWDLVFRLDPLSDADKLAALTAQAAERGLQLAPEVINWMLTHHERDIRKLAALLDALDRYSLATGRPITIPLLRAMLADPHSQATLEHHHHHH | soluble |
| MNRQPIVQLSNLSWTFREGETRRQVLDHITFDFEPGEFVALLGQSGSGKSTLLNLISGIEKPTTGDVTINGFAITQKTERDRTLFRRDQIGIVFQFFNLIPTLTVLENITLPQELAGVSQRKAAVVARDLLEKVGMADRERTFPDKLSGGEQQRVAISRALAHNPMLVLADEPTGNLDSDTGDKVLDVLLDLTRQAGKTLIMATHSPSMTQHADRVVNLQGGRLIPAVNRENQTDQPASTILLPTSYE | not soluble |
| MNRSNQDITQPTAIIAVVGVGAEQGIGAAVCRRFAQEKFKVYVAGRTLNKVEKVAAAIHRQGGQAVAYVLDAENEQQLQTLFDHLNDQPEALAAVIHNVGGNIPSIFLQSSLKFFSQMWRSTFLSSVLVAQRSLSIFQKQQQGTLIFTGASASLRGKPFFAAFSMGKSALRSYALNLAELYRSQNIHVAHVMVDGMVDGDRVNKALWGLGRLARLTRGTGGLNIDAIAENYWMLYQQNVDLWTHELDLRPYQEKF | not soluble |
| MNRVKYTIKCTILQGKIKERLIKNIHLNEMNLRNWSTLKWSTRV | not soluble |
| MNSFKTRDVQVAVEAVEKEKIEFIPLRRTLRYLIVGIDPGATTAIAALDLRGELVDMKSRKGWSPAEVIEFISSLGKPVVVSTDKSSPPEFVSKIRASFNAVLYTPKEDMSVEKKRILTSKYSTSNDLEHHHHHH | not soluble |
| MNSLFVDNTVFITRLKAGHIGRLVQALFEEWHGFEPWSSVDKIHAYYGRCLKDDELPLAFAAVDDSGILLGSAAVKRHDMESFPRYEYWLGDVFVLPEYRGKGIGRRLVAHCIGAARSLGIKFLYLYTPDVQIFYESFGWVVVGRHFHNGEWVTVMRLDVDKV | not soluble |
| MNSNSLSRFTSIVRTTSIRGFHDRSSVPRVVDDREKSSAKYNDAGYTFRYHQQGVDPLPRIPDCKVPVARPAYKVRDQWSDEAARFGQNDYIDLLGDGSVHPAQLQYHTPTWLRGFPGQHKANELIKLIHYRNLYDAKLKQNSPKRWHELRKRIKYLMMQHNYNKQDEIGRERNLGLWEEEPDYTYKDKSRRSFKDEIH | not soluble |
| MNSPFAAETLLFERSRPRPEALRVIYGFPNTYSVGITSLGYQLVWAQLASRADVAVSRLFTDVQEPLPRDPELVGFSFSWELDYGNLLVLLEQLGIPIWQRDRHDCHPLVFGGGPVLTANPEPFADFFDVILLGDAEPLLDPFLTTMAQVRTAARSQRLEALAHVPGIYVPSLYHVSYSHPTGPIQRIEPIKASVPPTVTKQVHRGHTLAASTVVTPLAAWENIYMVEVVRSCPELCRFCLASYLTLPFRTPSLETLIPAIERGLAVTDRLGLLGASITQHPEFPALIEHLGQPQFDHVRVSLASVRTNTVTESLAQLLSQRGSQSLTIAIETGSERLRQVINKKLETEEILAAASHAQAGGLKGLKFYGMVGLPTETDADVAATVDLFCQLKKTAPRLRLTLGCSTFVPKAHTPFQWWGVQPVAEKRLKFLKKELAKLGIEFRPESYNDSLIQALISRGDRRLAPLLEQVRHYGTSLGSYRRAFKERQGQLPDFEAYVNANWPEETVLPWQHLQSGLPTKTLENHLKRAIALEHHHHHH | not soluble |
| MNSSILLEVFKNAFSSIAEEMGLVLQRTAFSPNIKERRDFSCAVFDKEGNLVAQAAHIPVHLGSMPLSVKEAIKAFKGEFEEGDMVVLNDPYMGGTHLPDITLVAPFFYKGELLFFLANRAHHADVGGATPGSMPLSTSIFQEGFIIPPLKLMKRGELNEDFMKVFLRNVRTPEEREGDFKAQIMANITGIKRLRELIEREGIEKVLFFSKELMNYSERIIRERIKALPEGEYEFEDYMEDDGYGRKDVKIHLKLKVEKEKLIFDFSKSDDQTRGGINAVRAITLSAVYYAVISLLGSDIPVNEGCFRPLEVITRKGSVVDAEFPAGVAGGNVETSQRIVDVVLGAFSKAIPEKVPAASQGTMNHVTIGGINPENGEPFTYYETIGGGMGASAKGDGESAVHSHMTNTLNTPIEALEHYYPILVTEYSIRKGSGGEGMHRGGDGIVREYEFLTDVEVTVLSERRRLAPYGLFGGKPGMPGINLIKTEEGEKEMPSKFSVYLKKGDRLRVETPGGGGYMKEE | not soluble |
| MNTQSPPSPHDPHGAAALPFRLWTAEERRASLDTALREWRDGEDVWVYGYGSLIWRPDFDFVERRLATLHGHHRALCLWSRVNRGTPECPGLVFGLDRGGSCRGVVYRLAGRQVPDYFPALWDREMSTGAYLPRWLRCATEHGPVNALVFIMNRANPAYIRALPEPELLAIVRRASGRYGPCTEYVVQTAQALRQAGIRDARLEQIARQLEADVHPLGVLEHHHHHH | not soluble |
| MNTREVELRGHIIDSLILPRALDIIMDMGGDFQILEIDIGKRKSDPSHARILVEAETPSLLNQILDELGEIGASIAEIKEAELRRAPMDRVLPDDFYSTTNHQTFIYHGGEWVEVEGIEMDCMIVVDPESRTARCKPIREIKKGDLVVVGREGIKVVPPERPRGKQGVFEFMGSEVSSEKPLVTTIKKIASEITEIKKRGGRIGLVGGPAIVHTGSAPVIAEMIRLGFIDVLFAGNALATHDIECALYGTSLGVDIDRGEAVSRGHRHHINAINEINRAGSIRDAVEQGVLTSGIMYECVKNDVPFVLAGSIRDDGPLPDVITDVMEAQNEMRKYVQDLDMVIMIATMLHSIATGNILPSRVKTICVDINPATVTKLSDRGSSQAVSVVTDVGAFIPILLHEIKKMNGLGDLEHHHHHH | soluble |
| MNTRSSLSEEQREQLVGLCEQDLDFTTTASRIGGRHTLARSLYHCWLLHGRLCLVEKPTKKHYSFEIKKEVVDRFLAGETRMNLAKEFKLSSPQQVKDWVSKWHKRR | not soluble |
| MNTRTWFVLLCLALPLVSLQAQPHPQTEQTSPALSEHTEMDHTEMNHTEMDHTEMDHTEMDHTEMDHTQMDHTQMDHTQMDHAIHGATTQFAGDGSLPPPSAAALAAAFPPLRHRAAHAPPLVSLVRIDRLETWNADPGRGHAWATQAWIGSDIQRLWLRSQGECYGGRCQSVAVEMLYGHDISPWWDALIGARRDVQPDGRTWAALGVQGVAPYKFESAAFLYLSGAAMRLMVETKYDLLLSQRLILQPSLQATAGLTRDRDLGAGPQTLQVGIRMRYQITRRVAPYVGWEREYGYGESGRQARARGTSDHEKRWVAGIRCWFLEHHHHHH | soluble |
| MNTSEHEREHDHVIEVTDLRRVYGGDFEAVRGITFSVERGELFALLGTNGAGKTSTVELLEGLAAPSGGRVRVLGHDPYEERAAVRPRTGVMLQEGGFPSELTVAETVRMWAGCTSGARPVGEALSLVGLERRPDVRVKQLSGGERRRLDLALALLGRPEVLFLDEPTTGLDAEGRQETWELVRELRDGGTTVLLTTHYLEEAEGLADRLAILHEGRIATAGTPAEVTAAQPSRISFDLPDGYFLGDLPPLADLGVSTHETTGRTVRLRTHELQRTATALLLWAQRAQVELRGLDVRSASLEEAFLRIAREAAGDRPGRPGRTDVSGTTASGKEAVALEHHHHHH | soluble |
| MNVGDRVRVTSSVVVYHHPEHKKTAFDLQGMEGEVAAVLTEWQGRPISANLPVLVKFEQRFKAHFRPDEVTLIED | soluble |
